From US20250011363A1, “OPTIMIZED SHORTENED PEPTIDE THAT BINDS TO ACETYLCHOLINE RECEPTOR, AND USE THEREOF” (SKINMED CO., LTD., priority 2021, published 2025)

Target: acetylcholine receptor
Test: SPR, receptor immobilised on chip, peptide at 10 µM

Row | Binder | Binding affinity [RU]
1 | RVVLRK [6mer-2-522] | 124
2 | RGFYRK [6mer-2-509] | 136
3 | RGIQKR [6mer-2-524] | 128
4 | KSITKR [6mer-2-532] | 147
5 | RGRYKR [6mer-2-523] | 146
6 | KLRTKK [6mer-2-517] | 153
7 | RGICKR [6mer-2-507] | 145
8 | KSYCKR [6mer-2-520] | 144
9 | KVIYKR [6mer-2-531] | 148
10 | RGQTRR [6mer-2-527] | 145
11 | RVFLKK [6mer-2-508] | 121
12 | KRLLKR [6mer-2-533] | 142
13 | KRVLKK [6mer-2-510] | 146
14 | KWVRKK [6mer-2-525] | 145
15 | RVQLRR [6mer-2-534] | 139
16 | KGLQKK [6mer-2-514] | 124
17 | KGFRKK [6mer-2-528] | 151
18 | RWFTRR [6mer-2-512] | 148
19 | KLVTKK [6mer-2-518] | 151
20 | RVFCRR [6mer-2-511] | 126
21 | RSYSKR [6mer-2-530] | 139
22 | KQIQRR [6mer-2-519] | 135
23 | RQQQKK [6mer-2-516] | 146
24 | KQYTRK [6mer-2-521] | 144
25 | RWYCRK [6mer-2-515] | 123
26 | RRLTRK [6mer-2-513] | 121
27 | RVLLRK [6mer-2-526] | 144
28 | KQQRKR [6mer-2-529] | 124

Target: acetylcholine receptor
Test: SPR, acetylcholine receptor on CM5 chip, peptide at 10 uM

Row | Binder | Binding affinity (RU)
29 | RKWFTR [6mer-1-541] | 136
30 | KRSVTR [6mer-1-554] | 131
31 | KRQVQK [6mer-1-557] | 128
32 | RKVQQR [6mer-1-547] | 148
33 | KRGRLR [6mer-1-551] | 142
34 | KRWQQK [6mer-1-568] | 147
35 | KKRVSR [6mer-1-567] | 136
36 | RKLVQR [6mer-1-546] | 123
37 | KKSYQR [6mer-1-549] | 142
38 | RRRLTK [6mer-1-559] | 139
39 | KRSITK [6mer-1-564] | 139
40 | RRVILK [6mer-1-535] | 139
41 | KRVLLK [6mer-1-572] | 126
42 | RKRLRK [6mer-1-570] | 122
43 | KKWYLK [6mer-1-555] | 128
44 | RRSFTR [6mer-1-563] | 139
45 | KRSYQR [6mer-1-562] | 148
46 | KRWFRR [6mer-1-542] | 128
47 | RKLLCK [6mer-1-571] | 154
48 | RRSFSK [6mer-1-560] | 127

Row | Binder | Binding affinity (RU)
49 | RKVYLK [6mer-1-561] | 131
50 | RRLICR [6mer-1-550] | 148
51 | KRSIRR [6mer-1-565] | 151
52 | KKGFTK [6mer-1-556] | 145
53 | RKRYRK [6mer-1-552] | 144
54 | KKSFCR [6mer-1-566] | 148
55 | RRSQCK [6mer-1-538] | 142
56 | RRWFRK [6mer-1-536] | 151
57 | RRGVRK [6mer-1-553] | 128
58 | RRGLCK [6mer-1-537] | 154
59 | RRLIQR [6mer-1-558] | 139
60 | KRVQTR [6mer-1-540] | 128
61 | KRGIRK [6mer-1-539] | 148
62 | RRVITK [6mer-1-569] | 148
63 | RRSVCK [6mer-1-543] | 145
64 | KRVICR [6mer-1-544] | 149
65 | RRSYRK [6mer-1-545] | 127
66 | RRVYSR [6mer-1-548] | 123
67 | KRVLLR [6mer-1-573] | 126

Other lines, results leading:

Row | Binding affinity (RU) | Binder
68 | 139 | KRGLYK [6mer-1-581]
69 | 153 | RKRQRR [6mer-1-576]
70 | 139 | KKVLYK [6mer-1-583]
71 | 121 | KKSLQK [6mer-1-580]
72 | 137 | KRWFLK [6mer-1-582]
73 | 148 | KRWVRR [6mer-1-575]
74 | 128 | KKQYQR [6mer-1-577]
75 | 148 | RKSYLR [6mer-1-574]
76 | 148 | KRSVRK [6mer-1-579]
77 | 139 | RKGQYK [6mer-1-578]
78 | 127 | RKQVSK [6mer-1-584]
